The text below walks through data of article PMC7408900, “Cancer-Associated Substitutions in RNA Recognition Motifs of PUF60 and U2AF65 Reveal Residues Required for Correct Folding and 3′ Splice-Site Selection”.

The target of series [1] is T1, U2AF65 E162K (human, UniProt P26368 1-475, E162K). The series is described as follows: EMSA; Kd only in figure; Hill 2.23; binding not apparently reduced; EMSA: 40 mM Tris pH 8.0, 5 mM MgCl2, 0.25 ug/uL heparin, 0.01% Triton, 1 mM DTT, room temperature 20 min; 6% native PAGE in 0.5x TBE at 4 C; 15-17 nM biotin-RNA. The note with it: protein: recombinant; tags: N-terminal GST (pGEX6P); label: 5' biotin; single strand. For orientation: A gel shift assay detects complexes by their altered migration in electrophoresis.
T1 sequence (P26368 whole entry E162K, one chain of several): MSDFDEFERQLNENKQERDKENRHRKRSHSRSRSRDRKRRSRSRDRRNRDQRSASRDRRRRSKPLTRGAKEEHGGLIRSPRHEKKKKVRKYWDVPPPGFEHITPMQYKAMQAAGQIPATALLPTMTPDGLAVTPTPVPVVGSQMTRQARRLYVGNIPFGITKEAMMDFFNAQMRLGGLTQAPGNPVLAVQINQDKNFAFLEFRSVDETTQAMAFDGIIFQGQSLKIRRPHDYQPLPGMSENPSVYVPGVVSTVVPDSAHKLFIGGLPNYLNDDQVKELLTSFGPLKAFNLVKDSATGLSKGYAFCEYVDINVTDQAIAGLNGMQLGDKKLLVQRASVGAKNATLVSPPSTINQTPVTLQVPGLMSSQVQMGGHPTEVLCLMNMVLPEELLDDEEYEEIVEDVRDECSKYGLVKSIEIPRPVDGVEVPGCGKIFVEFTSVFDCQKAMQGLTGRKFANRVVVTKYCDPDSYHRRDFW

For the next series, the target named is PUF60 H169Y (human, UniProt Q9UHX1 1-559, H169Y). Kind of series: EMSA; higher affinity than cr probe; approximate Kd only in figure; Hill 2.4; EMSA: 40 mM Tris pH 8.0, 5 mM MgCl2, 0.25 ug/uL heparin, 0.01% Triton, 1 mM DTT, room temperature 20 min; 6% native PAGE in 0.5x TBE at 4 C; 15-17 nM biotin-RNA. The note with it: protein: recombinant; tags: 2xHis-lipoyl-TEV, removed by TEV; label: 5' biotin; single strand.
PUF60 H169Y, sequence (Q9UHX1 whole entry H169Y): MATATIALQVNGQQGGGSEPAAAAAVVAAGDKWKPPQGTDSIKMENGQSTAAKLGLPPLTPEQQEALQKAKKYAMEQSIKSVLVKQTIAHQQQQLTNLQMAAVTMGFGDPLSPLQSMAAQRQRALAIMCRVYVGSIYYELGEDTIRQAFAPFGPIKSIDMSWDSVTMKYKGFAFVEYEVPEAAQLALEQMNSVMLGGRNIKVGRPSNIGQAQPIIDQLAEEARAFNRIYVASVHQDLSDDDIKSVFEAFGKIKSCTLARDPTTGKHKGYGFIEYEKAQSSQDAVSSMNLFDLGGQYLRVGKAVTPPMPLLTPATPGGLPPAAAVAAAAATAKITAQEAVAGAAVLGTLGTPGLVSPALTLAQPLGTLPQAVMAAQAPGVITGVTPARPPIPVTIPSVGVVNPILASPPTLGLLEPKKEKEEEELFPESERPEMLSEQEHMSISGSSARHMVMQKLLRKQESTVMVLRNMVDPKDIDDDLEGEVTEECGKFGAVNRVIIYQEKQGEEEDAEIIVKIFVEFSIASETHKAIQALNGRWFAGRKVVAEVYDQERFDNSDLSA

Series [2] has as its target T1, U2AF65 E162K. Kind of series: EMSA; Kd only in figure; Hill 1.84; binding not apparently reduced; EMSA: 40 mM Tris pH 8.0, 5 mM MgCl2, 0.25 ug/uL heparin, 0.01% Triton, 1 mM DTT, room temperature 20 min; 6% native PAGE in 0.5x TBE at 4 C; 15-17 nM biotin-RNA. The note with it: protein: recombinant; tags: N-terminal GST (pGEX6P); label: 5' biotin; single strand.

For the molecule UUUUUUUGUUUUGUUUUGUGUUUUUUGAUAGA (ssRNA) [UBE2F-can3'ss-32], the binding result with U2AF65 E162K [1] and with PUF60 H169Y was “binds” throughout.
As for CUUUUUGUUUCCUUUUUUUUUUAAUUUAAAGG (ssRNA) [UBE2F-cr3'ss-32], the binding result with U2AF65 E162K [2] is reported as “binds”.
